Source: PMC12990809

Key:
Test in all cases: pulldown
Conditions in all cases: 20 nM protein, 1.5 uM RNA pool; 20 mM HEPES pH 7.8, 70 mM KCl, 10 mM NaCl, 10% glycerol, 2 mM DTT, 0.1 ug/uL BSA; 30 min, 4 C
RBM45 (Homo sapiens) = molecular target: T1, RBM45 (Homo sapiens) (UniProt Q8IUH3)
T1 sequence: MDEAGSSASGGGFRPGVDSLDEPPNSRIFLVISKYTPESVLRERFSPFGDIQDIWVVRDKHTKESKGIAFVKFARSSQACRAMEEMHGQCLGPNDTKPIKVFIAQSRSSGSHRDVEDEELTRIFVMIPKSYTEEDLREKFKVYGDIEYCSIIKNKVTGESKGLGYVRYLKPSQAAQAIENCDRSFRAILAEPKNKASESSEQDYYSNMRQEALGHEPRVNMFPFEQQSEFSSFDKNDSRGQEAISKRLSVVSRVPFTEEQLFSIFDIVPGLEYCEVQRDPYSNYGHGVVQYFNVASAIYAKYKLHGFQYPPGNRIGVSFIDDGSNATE

[1] = molecular target: T2, PFE0865c (Plasmodium falciparum) (UniProt Q8I3T5)
T2 sequence: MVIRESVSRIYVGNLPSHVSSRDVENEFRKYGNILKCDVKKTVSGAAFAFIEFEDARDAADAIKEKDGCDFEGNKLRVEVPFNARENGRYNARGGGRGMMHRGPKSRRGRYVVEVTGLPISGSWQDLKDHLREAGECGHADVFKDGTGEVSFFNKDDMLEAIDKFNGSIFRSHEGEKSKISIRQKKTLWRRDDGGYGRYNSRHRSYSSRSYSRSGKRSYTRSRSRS

ELAVL2 (Homo sapiens) = ELAVL2 (Homo sapiens) (UniProt Q12926)
ELAVL2 (Homo sapiens), sequence (Q12926 1-189): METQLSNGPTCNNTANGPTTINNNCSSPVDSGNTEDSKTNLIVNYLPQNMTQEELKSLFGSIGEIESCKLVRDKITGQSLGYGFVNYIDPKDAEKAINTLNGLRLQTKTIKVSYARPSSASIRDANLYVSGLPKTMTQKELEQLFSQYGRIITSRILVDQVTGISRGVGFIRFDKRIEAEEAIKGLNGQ

[2] = molecular target: T3, RBFOX2 I153V (Homo sapiens) (UniProt O43251)
T3 sequence: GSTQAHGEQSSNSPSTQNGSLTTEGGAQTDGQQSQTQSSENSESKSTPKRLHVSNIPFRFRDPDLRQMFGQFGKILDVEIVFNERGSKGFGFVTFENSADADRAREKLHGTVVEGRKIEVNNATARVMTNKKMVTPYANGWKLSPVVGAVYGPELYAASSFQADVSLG

[3] = molecular target: T4, tdp-1 (Caenorhabditis elegans) (UniProt D0VWM8)
T4 sequence: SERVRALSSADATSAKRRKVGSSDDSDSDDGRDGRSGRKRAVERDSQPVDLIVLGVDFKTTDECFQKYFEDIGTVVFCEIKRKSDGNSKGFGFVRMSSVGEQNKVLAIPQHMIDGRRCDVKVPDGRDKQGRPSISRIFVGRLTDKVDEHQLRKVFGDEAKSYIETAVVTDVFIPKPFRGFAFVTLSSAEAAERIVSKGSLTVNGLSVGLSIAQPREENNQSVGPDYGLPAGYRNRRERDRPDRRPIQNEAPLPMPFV

[4] = molecular target: T5, T07F10.3 (Caenorhabditis elegans) (UniProt Q22318)
T5 sequence: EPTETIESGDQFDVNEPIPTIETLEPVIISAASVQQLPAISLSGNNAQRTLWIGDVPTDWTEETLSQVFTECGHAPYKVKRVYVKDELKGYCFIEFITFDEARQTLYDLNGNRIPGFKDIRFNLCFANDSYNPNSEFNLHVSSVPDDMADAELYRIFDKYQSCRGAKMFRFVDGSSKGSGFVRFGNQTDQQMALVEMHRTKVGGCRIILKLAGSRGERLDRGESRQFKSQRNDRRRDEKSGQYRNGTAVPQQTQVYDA

[5] = molecular target: T6, PK21151.1 (Cannabis sativa) (UniProt A0A7J6F7E6)
T6 sequence: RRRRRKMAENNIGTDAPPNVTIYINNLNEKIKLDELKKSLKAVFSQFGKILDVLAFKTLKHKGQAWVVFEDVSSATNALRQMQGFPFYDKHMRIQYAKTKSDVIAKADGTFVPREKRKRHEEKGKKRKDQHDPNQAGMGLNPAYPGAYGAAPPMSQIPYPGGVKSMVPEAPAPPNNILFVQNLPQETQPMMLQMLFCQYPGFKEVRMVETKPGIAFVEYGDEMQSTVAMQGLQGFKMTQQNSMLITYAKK

FUBP1 (Homo sapiens) = molecular target: T7, FUBP1 (Homo sapiens) (UniProt A0ACI8RIE7)
T7 sequence: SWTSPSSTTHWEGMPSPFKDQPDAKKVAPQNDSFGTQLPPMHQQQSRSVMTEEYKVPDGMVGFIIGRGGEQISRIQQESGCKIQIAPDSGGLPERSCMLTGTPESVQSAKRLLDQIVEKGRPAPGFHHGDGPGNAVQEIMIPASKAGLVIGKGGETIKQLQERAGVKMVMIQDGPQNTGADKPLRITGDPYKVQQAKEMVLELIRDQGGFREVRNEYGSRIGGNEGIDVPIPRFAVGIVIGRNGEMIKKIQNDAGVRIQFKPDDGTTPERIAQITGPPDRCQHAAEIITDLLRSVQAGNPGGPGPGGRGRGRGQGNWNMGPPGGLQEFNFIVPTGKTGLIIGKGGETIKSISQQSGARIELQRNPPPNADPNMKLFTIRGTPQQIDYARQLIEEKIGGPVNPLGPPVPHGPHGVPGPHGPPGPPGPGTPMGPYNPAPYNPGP

GACAGA [RNAcompete motif RNCMPT00805]
binding signal (z-score (mean of top ten 7-mers)) (RBM45 (Homo sapiens)): 12.2

GAUGAAC [RNAcompete motif RNCMPT00800]
binding signal (z-score (mean of top ten 7-mers)) [1]: 6.53

UUAUUUU [RNAcompete motif RNCMPT00814]
binding signal (z-score (mean of top ten 7-mers)) (ELAVL2 (Homo sapiens)): 15.1

UGCAUG [RNAcompete motif RNCMPT00818]
binding signal (z-score (mean of top ten 7-mers)) [2]: 26.3

GAGAGA [RNAcompete motif RNCMPT00816]
binding signal (z-score (mean of top ten 7-mers)) [3]: 11.6

AUAAUAA [RNAcompete motif RNCMPT00821]
binding signal (z-score (mean of top ten 7-mers)) [4]: 8.08

UUGCACA [RNAcompete motif RNCMPT00830]
binding signal (z-score (mean of top ten 7-mers)) [5]: 12.4

AUGUAU [RNAcompete motif RNCMPT00822]
binding signal (z-score (mean of top ten 7-mers)) (FUBP1 (Homo sapiens)): 7.78
